Results: publication PMC12903857 (2026)
No end group written: not given here.

Tests used:
14-3-3σ [1] = target: T1, 14-3-3σ (UniProt P31947 1-248); experiment: FP; 100 uM compound 19
T1 chain: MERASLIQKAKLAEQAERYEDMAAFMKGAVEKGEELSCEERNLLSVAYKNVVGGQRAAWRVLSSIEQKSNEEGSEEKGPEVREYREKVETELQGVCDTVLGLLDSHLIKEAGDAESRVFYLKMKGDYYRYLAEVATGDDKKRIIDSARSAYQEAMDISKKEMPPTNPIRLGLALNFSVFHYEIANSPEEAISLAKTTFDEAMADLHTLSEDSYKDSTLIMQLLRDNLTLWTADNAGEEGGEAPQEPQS

14-3-3σ [2] = target: T1, 14-3-3σ; experiment: FP; DMSO (reference for compound 80)
14-3-3σ [3] = target: T1, 14-3-3σ; experiment: FP; DMSO (reference for compound 70)
14-3-3σ [4] = target: T1, 14-3-3σ; experiment: FP; 100 uM compound 40
14-3-3σ [5] = target: T1, 14-3-3σ; experiment: FP; 100 uM compound 39
14-3-3σ [6] = target: T1, 14-3-3σ; experiment: FP; 100 uM compound 33
14-3-3σ [7] = target: T1, 14-3-3σ; experiment: FP; 100 uM compound 36
14-3-3σ [8] = target: T1, 14-3-3σ; experiment: FP; 100 uM compound 18
14-3-3σ [9] = target: T1, 14-3-3σ; experiment: FP; DMSO (reference for compounds 19, 33)
14-3-3σ [10] = target: T1, 14-3-3σ; experiment: FP; 100 uM compound 46
14-3-3σ [11] = target: T1, 14-3-3σ; experiment: FP; 100 uM compound 32
14-3-3σ [12] = target: T1, 14-3-3σ; experiment: FP; 100 uM compound 24
14-3-3σ [13] = target: T1, 14-3-3σ; experiment: FP; 100 uM compound 30
14-3-3σ [14] = target: T1, 14-3-3σ; experiment: FP; DMSO (reference for compounds 24, 30, 31)
14-3-3σ [15] = target: T1, 14-3-3σ; experiment: FP; 100 uM compound 38
14-3-3σ [16] = target: T1, 14-3-3σ; experiment: FP; DMSO (reference for compounds 12, 18, 21, 36, 39, 40)
14-3-3σ [17] = target: T1, 14-3-3σ; experiment: FP; 100 uM compound 80
14-3-3σ [18] = target: T1, 14-3-3σ; experiment: FP; 100 uM compound 8
14-3-3σ [19] = target: T1, 14-3-3σ; experiment: FP; DMSO (reference for compound 8)
14-3-3σ [20] = target: T1, 14-3-3σ; experiment: FP; 100 uM compound 12
14-3-3σ [21] = target: T1, 14-3-3σ; experiment: FP; 100 uM compound 83
14-3-3σ [22] = target: T1, 14-3-3σ; experiment: FP; 100 uM compound 11
14-3-3σ [23] = target: T1, 14-3-3σ; experiment: FP; 100 uM compound 31
14-3-3σ [24] = target: T1, 14-3-3σ; experiment: FP; 100 uM compound 21
14-3-3σ [25] = target: T1, 14-3-3σ; experiment: FP; DMSO (reference for compound 11)

B1: FAM-labeled C-RAF259 peptide (10-mer) (peptide)
chain: QRSTSTPNVH
modifications: also: phosphoserine at S259, site in chain not given here, FAM label, site not given here
- Kd (14-3-3σ [1]): 213 nM
- Kd (14-3-3σ [2]): 4600 nM
- Kd (14-3-3σ [3]): 5510 nM
- Kd (14-3-3σ [4]): 320 nM
- Kd (14-3-3σ [5]): 420 nM
- Kd (14-3-3σ [6]): 230 nM
- Kd (14-3-3σ [7]): 240 nM
- Kd (14-3-3σ [8]): 280 nM
- Kd (14-3-3σ [9]): 3050 nM
- Kd (14-3-3σ [10]): 170 nM
- Kd (14-3-3σ [11]): 140 nM
- Kd (14-3-3σ [12]): 110 nM
- Kd (14-3-3σ [13]): 780 nM
- Kd (14-3-3σ [14]): 2280 nM
- Kd (14-3-3σ [15]): 218 nM
- Kd (14-3-3σ [16]): 4200 nM
- Kd (14-3-3σ [17]): 420 nM
- Kd (14-3-3σ [18]): 6600 nM
- Kd (14-3-3σ [19]): 6700 nM
- Kd (14-3-3σ [20]): 190 nM
- Kd (14-3-3σ [21]): 102 nM
- Kd (14-3-3σ [22]): 400 nM
- Kd (14-3-3σ [23]): 1420 nM
- Kd (14-3-3σ [24]): 480 nM
- Kd (14-3-3σ [25]): 1320 nM
